Paper PMC11784651
Each block holds one substance with its values, some of them ahead of it.

Assays:
[1] = target: Biotinylated human CD38-Avi-His (human); test: SPR
[2] = target: CD38 (soluble, in the SEC-MALS and electron microscopy of the ISB 1442/CD38 complex) (human); test: SEC-MALS
[3] = target: Biotinylated human CD38-Avi-His (Acrobiosystems, catalog NO: CD8-H82E7) (human); test: SPR
[4] = target: ISB 1442, CD47 x CD38 bispecific biparatopic antibody (2 + 1 BEAT format) (human); test: flow cytometry on cells

Kd [1]: < 10 pM
Substance: ISB 1442 (bispecific antibody)

stoichiometry N (ISB 1442 per CD38 (2:2 complex)) [2]: 1
fold slower dissociation at 300 RU than at 10 RU CD38 surface density [3]: 5.8 fold
Substance: ISB 1442, CD47 x CD38 bispecific biparatopic antibody (2 + 1 BEAT format) (bispecific antibody)

molar ratio CD38/antibody at IC50 (mol CD38 per mol antibody) [4]: 2.32
Substance: soluble CD38 (sCD38) (domain or fragment)
